This note sets out measurements from patent publication EP2986720B1, “URICASE MUTANTS” (Council of Scientific & Industrial Research, priority 2013, dated 2014).

Experiment in all cases: Enzyme kinetic study of uricase (4-AAP/phenol/HRP colour assay, 505 nm)
In series [1] the test system is O=c1[nH]c(=O)c2[nH]c(=O)[nH]c2[nH]1. Format: biochemical, Aspergillus flavus. The note with it: other: substrate uric acid 10 to 600 µM; respective optimum pH and temperature; Table 1; pH 7.0. The protocol:
(§1) Enzymatic assay of uricase: Substrate mixture contains • a. 2.2 ml of 2 mM Uric acid • b. 0.15 ml of 60 mM 4-Aminoantipyrine (4-AAP) • c. 0.15 ml of 1.5% Phenol • d. 0.15 ml of 20 U/ml Horseradish peroxidase (HRP) • e. 0.1 M respective buffer to make up to 3 ml • a. Uricase added to the above mixture and incubated at 25°C for 20 min. The colour is measured at 505 nm (Chen, Wang et al. 2008). • b. The reaction mix was set for 300 µl rather than 3 ml for convenient measuring in BiotekPowerwave X Elisa plate reader. The amounts of the solutions added in the assay mix were calculated accordingly for 300 µl.
(§2) The kinetics of the uricases was studied to evaluate the efficiency of the enzymes. The kinetic parameters of the uricases of all the species were determined at their respective optimum pH and optimum temperatures. The substrate (uric acid) was added in increasing concentrations ranging from 10 to 600 µM (10, 20, 40, 80, 100, 200, 300, 400, 500, and 600) in triplicates. The assay reagents for the kinetic studies were added in 96 well plates in triplicates in the buffer of pH 7.0 and incubated at 35°C. Equal amounts of enzyme were added and immediately readings were taken at 505 nm. Around 30 readings were taken at the interval of 1min. The readings at a particular time point were taken for further steady state kinetic study of uricases. The KM and Vmax values were determined from Michaelis-Menten saturation curve by the non-linear curve fit (ORIGIN 7.5). kcat and kcat/KM values were also calculated (table 5). Table 5: Kinetic properties of the uricases of this invention

The test system is the same in series [2]. Format: biochemical, Kluyveromyces lactis. As to conditions: other: substrate uric acid 10 to 600 µM, pH 7.0, 35°C, Table 1. Here is the method: as §1, §2
Series [3] addresses T1, Kluyveromyces lactis uricase variant KI T62S, Mutant 1 (SEQ ID NO.2) (Kluyveromyces lactis, UniProt Q6CNP7, T62S).
T1 sequence (Q6CNP7 1-308 T62S): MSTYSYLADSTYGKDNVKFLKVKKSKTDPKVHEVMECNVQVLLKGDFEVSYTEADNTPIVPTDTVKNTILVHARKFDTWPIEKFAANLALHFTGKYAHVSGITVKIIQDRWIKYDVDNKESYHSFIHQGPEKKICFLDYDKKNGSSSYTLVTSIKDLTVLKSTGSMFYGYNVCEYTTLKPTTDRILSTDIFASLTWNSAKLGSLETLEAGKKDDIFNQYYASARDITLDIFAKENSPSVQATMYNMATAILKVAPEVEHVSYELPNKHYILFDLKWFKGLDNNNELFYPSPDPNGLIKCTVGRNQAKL
Type of series: biochemical. The note with it: substrate uric acid; pH 7.0, 35°C; Table 5. Here is the method: as §1, §2

Series [4] has as its target T2, Kluyveromyces lactis uricase variant KI F167W, Mutant 2 (SEQ ID NO.3) (Kluyveromyces lactis, UniProt Q6CNP7, F167W).
T2 sequence (Q6CNP7 1-308 F167W): T1 sequence (Q6CNP7 1-308 T62S)
Format: biochemical. As to conditions: substrate uric acid; pH 7.0, 35°C; Table 5. The protocol: as §1, §2

In series [5] the target is T3, Kluyveromyces lactis uricase KlUOX (wild type) (SEQ ID NO.1) (Kluyveromyces lactis, UniProt Q6CNP7).
T3 sequence (Q6CNP7 1-308): T1 sequence (Q6CNP7 1-308 T62S)
Type of series: biochemical. The note with it: substrate uric acid; pH 7.0, 35°C; Table 5. Here is the method: as §1, §2

Substrate in series [6]: O=c1[nH]c(=O)c2[nH]c(=O)[nH]c2[nH]1
Format: biochemical, Kluyveromyces lactis. The note with it: other: substrate uric acid 10 to 600 µM, pH 7.0, 35°C, Table 1. Here is the method: as §1, §2
The source holds these as a separate data set.

Substrate in series [7]: O=c1[nH]c(=O)c2[nH]c(=O)[nH]c2[nH]1
Format: biochemical, A. globiformis. The note with it: other: substrate uric acid 10 to 600 µM; respective optimum pH and temperature; Table 1; pH 7.0. Here is the method: as §1, §2

Substrate in series [8]: O=c1[nH]c(=O)c2[nH]c(=O)[nH]c2[nH]1
Type of series: biochemical, Candida utilis. As to conditions: other: substrate uric acid 10 to 600 µM; respective optimum pH and temperature; Table 1; pH 7.0. Here is the method: as §1, §2

One may read the Km as the concentration of substrate that gives half-maximal velocity. For orientation: kcat means the maximal rate divided by the concentration of active sites. Broadly, the kcat/Km is the second-order rate constant that governs catalysis at low substrate concentration. Consider A. flavus uricase (Aspergillus flavus), for which, in series [1], the Km was 96.2 µM, the kcat came to 0.0717 s⁻¹ and the kcat/Km turned out to be 733 M⁻¹ s⁻¹.
Regarding “Kluyveromyces lactis uricase variant KI T62S, Mutant 1 (SEQ ID NO.2) (Kluyveromyces lactis NRRL Y-1140; T62S)”, in series [2], the Km is listed as 16.2 µM, the kcat is 0.2387 s⁻¹ and the kcat/Km came out at 14700 M⁻¹ s⁻¹.
Turning to `O=c1[nH]c(=O)c2[nH]c(=O)[nH]c2[nH]1` [uric acid], the Kcat was 0.2387 s⁻¹ in series [3], 0.242 s⁻¹ in series [4] and 0.2027 s⁻¹ in series [5].
On to “Kluyveromyces lactis uricase variant KI F167W, Mutant 2 (SEQ ID NO.3) (Kluyveromyces lactis NRRL Y-1140; F167W)”, for which, in series [2], the Km came to 28.07 µM, the kcat was determined as 0.242 s⁻¹ and the kcat/Km amounted to 8600 M⁻¹ s⁻¹.

B1: Kluyveromyces lactis uricase KlUOX (wild type) (SEQ ID NO.1) (Kluyveromyces lactis NRRL Y-1140) (protein)
chain: T1 sequence (Q6CNP7 1-308 T62S)
B1: in series [6], the Km was 40.8 µM, the kcat was 0.2027 s⁻¹ and the kcat/Km is 4830 M⁻¹ s⁻¹.

B2: A. globiformis uricase (Arthrobacter globiformis) (protein)
chain: MTATAETSTGTKVVLGQNQYGKAEVRLVKVTRNTARHEIQDLNVTSQLRGDFEAAHTAGDNAHVVATDTQKNTVYAFARDGFATTEEFLLRLGKHFTEGFDWVTGGRWAAQQFFWDRINDHDHAFSRNKSEVRTAVLEISGSEQAIVAGIEGLTVLKSTGSEFHGFPRDKYTTLQETTDRILATDVSARWRYNTVEVDFDAVYASVRGLLLKAFAETHSLALQQTMYEMGRAVIETHPEIDEIKMSLPNKHHFLVDLQPFGQDNPNEVFYAADRPYGLIEATIQREGSRADHPIWSNIAGFC
In the case of B2, in series [7], the Km worked out at 215 ± 2.16 µM, the kcat was found to be 0.0145 s⁻¹ and the kcat/Km turned out to be 67 M⁻¹ s⁻¹.

B3: C. utilis uricase (Williopsis jadinii) (protein)
chain: MSTTLSSSTYGKDNVKFLKVKKDPQNPKKQEVMEATVTCLLEGGFDTSYTEADNSSIVPTDTVKNTILVLAKTTEIWPIERFAAKLATHFVEKYSHVSGVSVKIVQDRWVKYAVDGKPHDHSFIHEGGEKRITDLYYKRSGDYKLSSAIKDLTVLKSTGSMFYGYNKCDFTTLQPTTDRILSTDVDATWVWDNKKIGSVYDIAKAADKGIFDNVYNQAREITLTTFALENSPSVQATMFNMATQILEKACSVYSVSYALPNKHYFLIDLKWKGLENDNELFYPSPHPNGLIKCTVVRKEKTKL
Turning to B3, in series [8], the Km worked out at 38.5 ± 5.16 µM, the kcat was 0.2027 s⁻¹ and the specificity constant (kcat/Km) is 5250 M⁻¹ s⁻¹.
